For assay [1], the target named is humanized antibody HzKR127-3.2.
Assay [2] has as its target KR127 antibody (murine monoclonal antibody).
Assay [3] has as its target humanized antibody HzKR127-3.
Assay [4] deals with humanized antibody HzKR127-3.1.
Sequence of humanized antibody HzKR127-3.1 (VH, as listed by the source, chain 1 of 2): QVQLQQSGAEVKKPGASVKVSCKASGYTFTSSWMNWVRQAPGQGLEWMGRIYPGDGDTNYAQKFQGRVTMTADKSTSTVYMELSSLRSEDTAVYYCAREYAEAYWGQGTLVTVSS
Sequence of humanized antibody HzKR127-3.1 (VL, as listed by the source, chain 2 of 2): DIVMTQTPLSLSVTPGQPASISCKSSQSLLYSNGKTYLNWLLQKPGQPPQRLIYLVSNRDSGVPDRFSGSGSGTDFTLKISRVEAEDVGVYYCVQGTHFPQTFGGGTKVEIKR

Sequence of GST-pre-S1 (1st to 56th amino acids) protein (P08515 whole entry): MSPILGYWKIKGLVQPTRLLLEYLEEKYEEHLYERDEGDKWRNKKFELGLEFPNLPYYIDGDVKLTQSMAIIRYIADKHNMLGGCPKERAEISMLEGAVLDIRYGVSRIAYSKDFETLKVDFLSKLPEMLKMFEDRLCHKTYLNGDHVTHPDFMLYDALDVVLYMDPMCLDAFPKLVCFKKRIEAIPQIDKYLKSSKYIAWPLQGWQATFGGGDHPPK
Sequence of KR127 antibody (murine monoclonal antibody) (VH, as listed by the source, chain 1 of 2): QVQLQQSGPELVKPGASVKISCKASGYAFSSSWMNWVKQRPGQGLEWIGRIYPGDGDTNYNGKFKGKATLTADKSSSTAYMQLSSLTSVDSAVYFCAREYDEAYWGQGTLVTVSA
Sequence of KR127 antibody (murine monoclonal antibody) (VL, as listed by the source, chain 2 of 2): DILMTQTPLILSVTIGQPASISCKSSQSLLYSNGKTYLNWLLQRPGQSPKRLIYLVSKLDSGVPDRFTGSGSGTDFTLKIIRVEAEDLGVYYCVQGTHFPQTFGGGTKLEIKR
Sequence of humanized antibody HzKR127-3.2 (VH, as listed by the source, chain 1 of 2): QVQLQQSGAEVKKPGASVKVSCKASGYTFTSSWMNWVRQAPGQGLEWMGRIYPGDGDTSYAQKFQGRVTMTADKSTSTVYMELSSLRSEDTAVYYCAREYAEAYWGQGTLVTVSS
Sequence of humanized antibody HzKR127-3 (VH, as listed by the source limits assumed, chain 1 of 2): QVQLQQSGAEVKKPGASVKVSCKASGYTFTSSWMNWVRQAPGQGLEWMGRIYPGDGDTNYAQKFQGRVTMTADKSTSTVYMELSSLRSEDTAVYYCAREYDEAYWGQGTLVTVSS
Sequence of humanized antibody HzKR127-3 (VL, as listed by the source limits assumed, chain 2 of 2): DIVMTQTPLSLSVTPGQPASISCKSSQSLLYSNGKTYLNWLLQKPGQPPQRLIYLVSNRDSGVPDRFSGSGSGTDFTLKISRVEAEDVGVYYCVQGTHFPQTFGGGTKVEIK

As for “GST-pre-S1 (1st to 56th amino acids) protein (from UniProt P08515 1-218)”, the IC50 (read off the curve) in assay [1] turned out to be 2 nM; in assay [2], 20 nM; in assay [3], 30 nM; in assay [4], 6 nM.

Source of the values: US20170260258A1.
